Data from the supplement of paper PMC9732359.
± gives the uncertainty stated by the source.

Test: protein stability index of a GFP-peptide fusion (yeast GPS) (PSI 1-4); higher = more stable; sorted into four equal gates, so the index is relative within each strain
Procedure, shortened: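 Peptides tiling yeast proteins in 17-residue segments were fused downstream of GFP, with Cherry expressed from the same plasmid. As a pooled library in yeast, mid-log cultures grown in leucine-free medium were sorted into four equal gates by GFP/Cherry fluorescence ratio. Gate plasmids were PCR-amplified and Illumina-sequenced, and barcodes linked reads to strains. Each peptide received a protein stability index equal to the sum of each gate's read frequency times its gate number.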

| Sequence | protein stability index (doa10∆) | protein stability index (pdr5∆) | protein stability index (san1∆) | protein stability index (ubr1∆) |
| --- | --- | --- | --- | --- |
| RYQIMLPEQLKSGKFCS [SNM1] | 2.74 ± 0.071 | 2.08 ± 0.09 | 2.7 ± 0.07 | 2.12 ± 0.061 |
| NKLEKLNSLLTYIKSEI [SMC4] | 2.73 ± 0.061 | 2.32 ± 0.045 | 2.66 ± 0.057 | 2.87 ± 0.036 |
| EPPAGVALPPGSNYNPY [CYT1] | 2.77 ± 0.12 | 3.13 ± 0.076 | 2.83 ± 0.12 | 3.15 ± 0.047 |
| AILQKSLKNVTEKNREI [YIL149C/MLP2] | 3.01 ± 0.051 | 2.79 ± 0.064 | 3.05 ± 0.032 | 2.96 ± 0.036 |
| SSDVDMDDEEWRSKRIE [RPC53] | 3.47 ± 0.1 | 3.17 ± 0.1 | 3.42 ± 0.053 | 3.31 ± 0.069 |
| NFLSKIRNINVQDALLT [SNF2] | 1.63 ± 0.047 | 1.99 ± 0.054 | 1.77 ± 0.083 | 1.54 ± 0.032 |
| DGEGKVDSISLHKIFYK [YCG1] | 2.78 ± 0.087 | 3.24 ± 0.064 | 3.13 ± 0.048 | 2.94 ± 0.063 |
| QRESQIGAAELNENARE [SNF12] | 3.22 ± 0.075 | 3.19 ± 0.063 | 2.93 ± 0.12 | 3.35 ± 0.044 |
| LLSEHDDHNGEVWSVSW [YGL100W/SEH1] | 2.62 ± 0.068 | 2.8 ± 0.069 | 2.36 ± 0.079 | 2.66 ± 0.1 |
| NTVMLQGIFKNSSNYFG [AAR2] | 2.21 ± 0.15 | 1.29 ± 0.094 | 2.15 ± 0.14 | 1.46 ± 0.2 |
| QQQQQQQQQTSPPPQTH [SNF5] | 2.765 ± 0.011 | 2.862 ± 0.011 | 2.799 ± 0.01 | 2.824 ± 0.009 |
| VAPFMIKYEFNGIPLKS [YMR129W/POM152] | 2.54 ± 0.077 | 1.91 ± 0.045 | 2.38 ± 0.083 | 2.75 ± 0.073 |
| AAKPDNLANFSNEVAMN [SWP82] | 3.32 ± 0.11 | 3.22 ± 0.088 | 3.15 ± 0.056 | 3.23 ± 0.067 |
| HHDYRSYYGIVCLMQIS [RRP6] | 2.03 ± 0.085 | 1.67 ± 0.067 | 1.32 ± 0.12 | 1.68 ± 0.076 |
| QQLLKGLSLSFSKKLDL [DSN1] | 3.13 ± 0.076 | 3.1 ± 0.088 | 2.74 ± 0.069 | 3.16 ± 0.075 |
| VGASVVVVKNWGAETDE [RPS12] | 3.34 ± 0.12 | 3.12 ± 0.089 | 3.29 ± 0.047 | 2.97 ± 0.067 |
| EINAVFNELCDPESRTQ [POP1] | 2.91 ± 0.079 | 3.01 ± 0.069 | 2.75 ± 0.092 | 2.93 ± 0.064 |
| EKYGKQVYDLLKRFPKM [BRR2] | – | – | 2.99 ± 0.19 | 3.31 ± 0.14 |
| NESFNRRISSMPGGYFH [YAR002W/NUP60] | 2.88 ± 0.09 | 3.17 ± 0.089 | 3.07 ± 0.099 | 3.04 ± 0.043 |
| ILTGTPLQNNLPELWAL [SNF2] | 2.24 ± 0.05 | 2.4 ± 0.044 | 2.15 ± 0.055 | 2.3 ± 0.043 |
| VLRLATNKGPLAQIWLA [MCD1] | 1.93 ± 0.11 | 1.31 ± 0.052 | 1.51 ± 0.15 | 1.17 ± 0.055 |
| PGHVNFMDETAVALAAS [SNU114] | 2.4 ± 0.062 | 2.7 ± 0.1 | 2.29 ± 0.073 | 2.34 ± 0.066 |
| SYSPTSPSYSPTSPAYS [RPO21] | 3 ± 0.071 | 3.05 ± 0.063 | 2.73 ± 0.062 | 3.15 ± 0.048 |
| ELKDLETQVEVEKNEIG [NNF1] | 3.05 ± 0.19 | 3.24 ± 0.11 | 2.97 ± 0.17 | 3.33 ± 0.13 |
| KMNNKPERFMVFQLPTR [RPC53] | 2.38 ± 0.063 | 2.75 ± 0.056 | 2.65 ± 0.085 | 2.83 ± 0.058 |
| PRIQRADPVALYLGLKR [RPB5] | 1.82 ± 0.11 | 2.42 ± 0.1 | – | 2.28 ± 0.083 |

| Sequence | protein stability index (doa10∆) | protein stability index (pdr5∆) | protein stability index (san1∆) | protein stability index (ubr1∆) |
| --- | --- | --- | --- | --- |
| SRDELIRLAKTLKKNNV [RPN10] | 1.77 ± 0.086 | 1.81 ± 0.091 | 2.42 ± 0.17 | 2.07 ± 0.089 |
| RVLQLLAVIMDNIGEID [YCG1] | 1.93 ± 0.073 | 1.63 ± 0.067 | 1.46 ± 0.17 | 1.52 ± 0.046 |
| GKKASLNVGNVLPLGSV [RPL2A] | 2.4 ± 0.051 | 2.29 ± 0.057 | 2.51 ± 0.078 | 2.56 ± 0.042 |
| DLSMVPKMKDEEYDDDD [SNF2] | 2.9 ± 0.13 | 3.22 ± 0.14 | 3.24 ± 0.098 | 2.99 ± 0.12 |
| EELRGQQTEHETEIKDL [SMC4] | 3.34 ± 0.13 | 3.43 ± 0.094 | 3.48 ± 0.067 | 3.37 ± 0.053 |
| QKTVNLKNIMKVSDPYV [RPN4] | 2.32 ± 0.084 | 2 ± 0.11 | 2.48 ± 0.1 | 1.82 ± 0.058 |
| ICKNCSAILLSETDKRQ [RPO31] | 2.59 ± 0.086 | 2.85 ± 0.058 | 2.81 ± 0.068 | 2.96 ± 0.041 |
| PGDGSSYINVTFRAVVF [RPC25] | 1.5 ± 0.083 | 2.05 ± 0.058 | 2.4 ± 0.077 | 2.08 ± 0.054 |
| ICNTLNIAKDLKWKKGI [SMC1] | 1.43 ± 0.1 | 1.26 ± 0.14 | 1.45 ± 0.17 | 2.69 ± 0.24 |
| PQPLFMEDPPSTVSGEL [YMR153W/NUP53] | 3.38 ± 0.2 | 3.64 ± 0.19 | 3.58 ± 0.11 | 3.12 ± 0.16 |
| GPVVAGINSKSGKPFIA [PUP3] | 3.18 ± 0.13 | 3.27 ± 0.11 | 2.99 ± 0.18 | 3.05 ± 0.11 |
| ITLLTRQRELLIAHQRS [GRR1] | 2.18 ± 0.039 | 2.14 ± 0.038 | 2.01 ± 0.045 | 1.89 ± 0.029 |
| FEKVGSHLYKARLDGHD [RPN14] | 2.92 ± 0.26 | 3.51 ± 0.19 | – | 3.31 ± 0.14 |
| VSKKELYAIKKVTLNKE [BRR2] | 1.73 ± 0.072 | 2.01 ± 0.11 | – | 1.6 ± 0.085 |
| STFENRNVGKTLVNKST [RPS1A] | 2.91 ± 0.085 | 2.74 ± 0.059 | 3.09 ± 0.055 | 3.14 ± 0.068 |
| PLSDLKKRSQAKMNAKT [RPC82] | 3.21 ± 0.08 | 3.4 ± 0.081 | 3.05 ± 0.066 | 3.32 ± 0.045 |
| NTEITQKSSKENIENEE [ECM29] | 3.05 ± 0.082 | 3.28 ± 0.087 | 2.76 ± 0.078 | 2.94 ± 0.09 |
| MASYMLNSFAFELCSLG [YJR042W/NUP85] | 1.29 ± 0.17 | 1.51 ± 0.16 | – | 1.5 ± 0.23 |
| KNVKHSGNIQLDEIIEI [RPL12A] | 3.24 ± 0.071 | 3.2 ± 0.067 | 3.15 ± 0.053 | 3.22 ± 0.065 |
| SGHDDLVHDVVYDFYGR [YGL100W/SEH1] | 2.49 ± 0.068 | 2.75 ± 0.067 | 2.39 ± 0.089 | 2.5 ± 0.065 |
| SWSNGKITSPIRSVALN [RRP42] | 2.62 ± 0.11 | 2.62 ± 0.089 | 2.66 ± 0.091 | 2.81 ± 0.073 |
| GSEILGDLKLQVLLDEE [RPO21] | 3.25 ± 0.12 | 3.35 ± 0.13 | 3.04 ± 0.14 | 3.28 ± 0.1 |
| NNPQVVNAITVAQQQVQ [SNF5] | 1.69 ± 0.049 | 1.78 ± 0.047 | 1.42 ± 0.075 | 1.99 ± 0.035 |
| NANTVFSERAAMFAALQ [SWI1] | 2.31 ± 0.049 | 2.32 ± 0.043 | 2.4 ± 0.055 | 2.38 ± 0.032 |
| GINNLSEIWDVSRGQSA [PRP8] | 3 ± 0.13 | 2.67 ± 0.12 | 2.74 ± 0.29 | 2.26 ± 0.073 |
| RVRNKDIRKFLDGIYVS [RPL9A] | 1.91 ± 0.081 | 2.07 ± 0.087 | 2.05 ± 0.11 | 2.23 ± 0.062 |
